The record followed here is patent US20090208995.

The test system of data set [1] is T1, recombinant Pro-CE (pro-clotting enzyme, His-Tag at the C-terminus, expressed in expresSF+ insect cells).
T1 sequence: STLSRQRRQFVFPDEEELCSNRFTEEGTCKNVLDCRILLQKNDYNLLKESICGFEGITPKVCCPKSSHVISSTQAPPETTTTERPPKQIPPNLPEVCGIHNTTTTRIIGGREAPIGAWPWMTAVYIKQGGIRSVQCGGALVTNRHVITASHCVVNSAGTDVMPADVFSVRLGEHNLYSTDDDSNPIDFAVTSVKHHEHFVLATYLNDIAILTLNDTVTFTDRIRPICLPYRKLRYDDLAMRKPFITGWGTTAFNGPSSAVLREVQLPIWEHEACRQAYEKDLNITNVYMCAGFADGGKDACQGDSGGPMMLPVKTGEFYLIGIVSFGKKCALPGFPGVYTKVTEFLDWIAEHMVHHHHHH

Data set [2] relates to Pro-CE derived from a horseshoe crab hemocyte extract (DS-10AII fraction).
Data set [3] has as its target T2, recombinant factor B (His-Tag at the C-terminus; culture supernatant, MOI = 0.1, 96 h).
T2 chain: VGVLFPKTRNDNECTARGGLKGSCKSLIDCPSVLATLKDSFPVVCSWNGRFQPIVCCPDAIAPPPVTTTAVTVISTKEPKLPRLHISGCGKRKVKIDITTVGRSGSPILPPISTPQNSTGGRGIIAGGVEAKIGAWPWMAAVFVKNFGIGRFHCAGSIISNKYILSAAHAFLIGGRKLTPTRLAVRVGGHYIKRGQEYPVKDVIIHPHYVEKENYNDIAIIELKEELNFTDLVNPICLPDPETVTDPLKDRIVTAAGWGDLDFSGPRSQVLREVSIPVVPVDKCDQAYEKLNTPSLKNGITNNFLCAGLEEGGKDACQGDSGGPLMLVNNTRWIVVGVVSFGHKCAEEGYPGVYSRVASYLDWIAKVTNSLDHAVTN

Data set [4] addresses T3, recombinant Pro-CE (pro-clotting enzyme, His-Tag at the C-terminus, expressed in expresSF+ insect cells).
T3 chain: T1 sequence

Consider “Factor G derived from a horseshoe crab hemocyte extract (DS-3GII fraction)”, for which, in data set [1], the Reactivity, Average; CSBG 0 ng/mL (A 405 to 492 nm) turned out to be 0.05; the Reactivity, Average; CSBG 1 ng/mL (A 405 to 492 nm) is 0.484; the Reactivity, Average; CSBG 10 ng/mL (A 405 to 492 nm) was 0.987; the Reactivity, endpoint assay, Boc-Leu-Gly-Arg-pNA; CSBG 0 ng/mL, first reading (A 405 to 492 nm) turned out to be 0.051. Further, in data set [1], the Reactivity, endpoint assay, Boc-Leu-Gly-Arg-pNA; CSBG 0 ng/mL, second reading (A 405 to 492 nm) stood at 0.049; the Reactivity, endpoint assay, Boc-Leu-Gly-Arg-pNA; CSBG 1 ng/mL, first reading (A 405 to 492 nm) was 0.48; the Reactivity, endpoint assay, Boc-Leu-Gly-Arg-pNA; CSBG 1 ng/mL, second reading (A 405 to 492 nm) is 0.487; the Reactivity, endpoint assay, Boc-Leu-Gly-Arg-pNA; CSBG 10 ng/mL, first reading (A 405 to 492 nm) amounted to 0.988. Further, in data set [1], the Reactivity, endpoint assay, Boc-Leu-Gly-Arg-pNA; CSBG 10 ng/mL, second reading (A 405 to 492 nm) is 0.986; the Reactivity, ΔA; CSBG 1 ng/mL (A 405 to 492 nm) stood at 0.434; the Reactivity, ΔA; CSBG 10 ng/mL (A 405 to 492 nm) turned out to be 0.937; the “enzymatic activity with DS-3GII fraction and BG” value is “the recombinant Pro-CE exhibited an enzymatic activity almost equivalent to that of Pro-CE derived from a horseshoe crab hemocyte extract”. Also, in data set [2], the Reactivity, Average; CSBG 0 ng/mL (A 405 to 492 nm) turned out to be 0.058; the Reactivity, Average; CSBG 1 ng/mL (A 405 to 492 nm) was 0.437; the Reactivity, Average; CSBG 10 ng/mL (A 405 to 492 nm) is 0.986; the Reactivity, endpoint assay, Boc-Leu-Gly-Arg-pNA; CSBG 0 ng/mL, first reading (A 405 to 492 nm) turned out to be 0.056. In data set [2], this molecule gave a Reactivity, endpoint assay, Boc-Leu-Gly-Arg-pNA; CSBG 0 ng/mL, second reading (A 405 to 492 nm) of 0.06; a Reactivity, endpoint assay, Boc-Leu-Gly-Arg-pNA; CSBG 1 ng/mL, first reading (A 405 to 492 nm) of 0.44; a Reactivity, endpoint assay, Boc-Leu-Gly-Arg-pNA; CSBG 1 ng/mL, second reading (A 405 to 492 nm) of 0.434; a Reactivity, endpoint assay, Boc-Leu-Gly-Arg-pNA; CSBG 10 ng/mL, first reading (A 405 to 492 nm) of 0.969. In data set [2], this molecule came in with a Reactivity, endpoint assay, Boc-Leu-Gly-Arg-pNA; CSBG 10 ng/mL, second reading (A 405 to 492 nm) of 1; a Reactivity, ΔA; CSBG 1 ng/mL (A 405 to 492 nm) of 0.379; a Reactivity, ΔA; CSBG 10 ng/mL (A 405 to 492 nm) of 0.928.
On to “recombinant factor G (culture supernatant; alpha-subunit:beta-subunit = 2:1)”, for which, in data set [1], the Reactivity, Average; CSBG 0 ng/mL came out at 0.078; the Reactivity, Average; CSBG 1 ng/mL worked out at 0.139; the Reactivity, Average; CSBG 10 ng/mL is 0.532; the Reactivity, endpoint assay, Boc-Leu-Gly-Arg-pNA; CSBG 0 ng/mL, first reading was determined as 0.079. For the same molecule, in data set [1], the Reactivity, endpoint assay, Boc-Leu-Gly-Arg-pNA; CSBG 0 ng/mL, second reading worked out at 0.076; the Reactivity, endpoint assay, Boc-Leu-Gly-Arg-pNA; CSBG 1 ng/mL, first reading turned out to be 0.14; the Reactivity, endpoint assay, Boc-Leu-Gly-Arg-pNA; CSBG 1 ng/mL, second reading was 0.138; the Reactivity, endpoint assay, Boc-Leu-Gly-Arg-pNA; CSBG 10 ng/mL, first reading came to 0.543. In addition, in data set [1], the Reactivity, endpoint assay, Boc-Leu-Gly-Arg-pNA; CSBG 10 ng/mL, second reading is 0.52; the Reactivity, ΔA; CSBG 1 ng/mL stood at 0.061; the Reactivity, ΔA; CSBG 10 ng/mL is 0.454; the “hydrolysis of Boc-Leu-Gly-Arg-pNA in the complete reconstitution system with BG” value is given as “the same enzymatic activity as that of native factor LAL was found to be expressed”.

B1: recombinant factor C (derived from Tachypleus rotundicauda), commercial element of PyroGene (product of Cambrex) (protein)
chain: KGVDLGLCDETRFECKCGDPGYVFNIPVKQCTYFYRWRPYCKPCDDLEAKDICPKYKRCQECKAGLDSCVTCPPNKYGTWCSGECQCKNGGICDQRTGACACRDRYEGVHCEILKGCPLLPSDSQVQEVRNPPDNPQTIDYSCSPGFKLKGMARISCLPNGQWSNFPPKCIRECAMVSSPEHGKVNALSGDMIEGATLRFSCDSPYYLIGQETLTCQGNGQWNGQIPQCKNLVFCPDLDPVNHAEHKVKIGVEQKYGQFPQGTEVTYTCSGNYFLMGFDTLKCNPDGSWSGSQPSCVKVADREVDCDSKAVDFLDDVGEPVRIHCPAGCSLTAGTVWGTAIYHELSSVCRAAIHAGKLPNSGGAVHVVNNGPYSDFLGSDLNGIKSEELKSLARSFRFDYVRSSTAGKSGCPDGWFEVDENCVYVTSKQRAWERAQGVCTNMAARLAVLDKDVIPNSLTETLRGKGLTTTWIGLHRLDAEKPFIWELMDRSNVVLNDNLTFWASGEPGNETNCVYMDIQDQLQSVWKTKSCFQPSSFACMMDLSDRNKAKCDDPGSLENGHATLHGQSIDGFYAGSSIRYSCEVLHYLSGTETVTCTTNGTWSAPKPRCIKVITCQNPPVPSYGSVEIKPPSRTNSISRVGSPFLRLPRLPLPLARAAKPPPKPRSSQPSTVDLASKVKLPEGHYRVGSRAIYTCESRYYELLGSQGRRCDSNGNWSGRPASCIPVCGRSDSPRSPFIWNGNSTEIGQWPWQAGISRWLADHNMWFLQCGGSLLNEKWIVTAAHCVTYSATAEIIDPNQFKMYLGKYYRDDSRDDDYVQVREALEIHVNPNYDPGNLNFDIALIQLKTPVTLTTRVQPICLPTDITTREHLKEGTLAVVTGWGLNENNTYSETIQQAVLPVVAASTCEEGYKEADLPLTVTENMFCAGYKKGRYDACSGDSGGPLVFADDSRTERRWVLEGIVSWGSPSGCGKANQYGGFTKVNVFLSWIRQFI
Take B1: in data set [3], the Reactivity, Av.; sample (D) FB + FC, Et 0 ng/mL (A405 to 492 nm) came out at 0.025; the Reactivity, Av.; sample (D) FB + FC, Et 100 ng/mL (A405 to 492 nm) amounted to 0.033; the Reactivity; sample (D) FB + FC, Et 0 ng/mL, first reading (A405 to 492 nm) came out at 0.024; the Reactivity; sample (D) FB + FC, Et 0 ng/mL, second reading (A405 to 492 nm) turned out to be 0.025. Moreover, in data set [3], the Reactivity; sample (D) FB + FC, Et 100 ng/mL, first reading (A405 to 492 nm) turned out to be 0.032; the Reactivity; sample (D) FB + FC, Et 100 ng/mL, second reading (A405 to 492 nm) was determined as 0.034; the “hydrolysis of Boc-Leu-Gly-Arg-pNA in the complete reconstitution system with Et (Pro-CE also present)” value was “cascade reaction of Et proceeds in a concentration-dependent manner through employment of recombinant factors C and B and recombinant Pro-CE in combination”. Further, in data set [4], the Reactivity, Av.; sample (C) PCE + FC, Et 0 ng/mL (A405 to 492 nm) was found to be 0.02; the Reactivity, Av.; sample (C) PCE + FC, Et 100 ng/mL (A405 to 492 nm) was determined as 0.03; the Reactivity; sample (C) PCE + FC, Et 0 ng/mL, first reading (A405 to 492 nm) was 0.02; the Reactivity; sample (C) PCE + FC, Et 0 ng/mL, second reading (A405 to 492 nm) amounted to 0.02. Also, in data set [4], the Reactivity; sample (C) PCE + FC, Et 100 ng/mL, first reading (A405 to 492 nm) turned out to be 0.029 and the Reactivity; sample (C) PCE + FC, Et 100 ng/mL, second reading (A405 to 492 nm) came out at 0.03.

B2: recombinant factor B (His-Tag at the C-terminus; culture supernatant, MOI = 0.1, 96 h) (protein)
chain: T2 chain
For B2, in data set [4], the Reactivity, Av.; sample (A) PCE + FB + FC (factor C also present), Et 0 ng/mL (A405 to 492 nm) is 0.023; the Reactivity, Av.; sample (A) PCE + FB + FC (factor C also present), Et 100 ng/mL (A405 to 492 nm) came out at 0.649; the Reactivity, Av.; sample (B) PCE + FB, Et 0 ng/mL (A405 to 492 nm) was found to be 0.023; the Reactivity, Av.; sample (B) PCE + FB, Et 100 ng/mL (A405 to 492 nm) stood at 0.023. Also, in data set [4], the Reactivity; sample (A) PCE + FB + FC (factor C also present), Et 0 ng/mL, first reading (A405 to 492 nm) is 0.024; the Reactivity; sample (A) PCE + FB + FC (factor C also present), Et 0 ng/mL, second reading (A405 to 492 nm) turned out to be 0.022; the Reactivity; sample (A) PCE + FB + FC (factor C also present), Et 100 ng/mL, first reading (A405 to 492 nm) turned out to be 0.652; the Reactivity; sample (A) PCE + FB + FC (factor C also present), Et 100 ng/mL, second reading (A405 to 492 nm) turned out to be 0.645. Also, in data set [4], the Reactivity; sample (B) PCE + FB, Et 0 ng/mL, first reading (A405 to 492 nm) turned out to be 0.023; the Reactivity; sample (B) PCE + FB, Et 0 ng/mL, second reading (A405 to 492 nm) stood at 0.022; the Reactivity; sample (B) PCE + FB, Et 100 ng/mL, first reading (A405 to 492 nm) stood at 0.022; the Reactivity; sample (B) PCE + FB, Et 100 ng/mL, second reading (A405 to 492 nm) was 0.023. For the same molecule, in data set [4], the “hydrolysis of Boc-Leu-Gly-Arg-pNA in the complete reconstitution system with Et (factor C also present)” value was “cascade reaction of Et proceeds in a concentration-dependent manner through employment of recombinant factors C and B and recombinant Pro-CE in combination”; the “hydrolysis of Boc-Leu-Gly-Arg-pNA in the presence of Et at high concentration, without factor C” value is on record as “in the samples containing recombinant Pro-CE and/or recombinant factor B, activation attributed to high concentration Et was not observed”.
